Assay results from patent publication US20220025003A1, “REAGENTS AND METHODS FOR CONTROLLING PROTEIN FUNCTION AND INTERACTION” (University of Washington, priority 2018, published 2022).
Substitutions are numbered along the chain they refer to. Where “and” joins values, the source holds several entries; their conditions need not be identical. Identical values can stand only once.

B1: D5: computational design on DHR79 scaffold binding danoprevir/NS3a complex, SEQ ID NO: 10 (protein)
chain: SSDEEEARELIERAKEAAERAQEAAERTGDPRVRELARELKRLAQEAAEEVKRDPSSSDVNEALKLIVEAIEAAVDALEAAERTGDPEVRELARELVRLAVEAAEEVQRNPSSSDVNEALLTIVIAIEAAVNALEAAERTGDPEVRELARELVRLAVEAAEEVQRNPSSREVNIALWKIVLAIQEAVESLREAEESGDPEKREKARERVREAVERAEEVQRDPSGWLNH
B2: DNCR2: danoprevir/NS3a complex reader, final variant with 14 mutations from D5, SEQ ID NO: 8 (protein)
chain: SSDEEEARELIERAKEAAERAQEAAERTGDPRVRELARELKRLAQEAAEEVKRDPSSSDVNEALKLIVEAIEAAVDALEAAERTGDPEVRELARELVRLAVEAAEEVQRNPSSSDVNEALHSIVYAIEAAIFALEAAERTGDPEVRELARELVRLAVEAAEEVQRNPSSRNVEHALMRIVLAIYLAEENLREAEESGDPEKREKARERVREAVERAEEVQRDPSGWLNH
B3: G3: computational design on DHR18 scaffold binding grazoprevir/NS3a complex, SEQ ID NO: 12 (protein)
chain: DIEKLCKKAEEEAKEAQEKADELRQRHPDSQAAEDAEDLANEAEAAVLAACSLAQEHPNADIAKLCIKAASEAAEAASKAAELAQRHPDSQAARDAIKLASQAARAVILAIMLAAENPNADIAKLCIKAASEAAEAASKAAELAQRHPDSQAARDAIKLASQAAEAVERAIWLAAENPNADIAKKCIKAASEAAEEASKAAEEAQRHPDSQKARDEIKEASQKAEEVKERCKS
B4: GNCR1: grazoprevir/NS3a complex reader 1, 4 mutations from G3, SEQ ID NO: 11 (protein)
chain: B3 chain with E42L, E44V, A49T, S52L
B5: ANR—BFP-CAAX: plasma membrane-targeted ANR-BFP fusion (protein)
chain: MGELDELVYLLDGPGYDPIHSDGSGTGSGTGSGTGTTSGTGTGGSTGGELDELVYLLDGPGYDPIHSDGSGTGSGTGSGTGTTSGTGTGGSTGEQKLISEEDLGSGSSELIKENMHMKLYMEGTVDNHHFKCTSEGEGKPYEGTQTMRIKVVEGGPLPFAFDILATSFLYGSKTFINHTQGIPDFFKQSFPEGFTWERVTTYEDGGVLTATQDTSLQDGCLIYNVKIRGVNFTSNGPVMQKKTLGWEAFTETLYPADGGLEGRNDMALKLVGGSHLIANIKTTYRSKKPAKNLKMPGVYYVDYRLERIKEANNETYVEQHEVAVARYCDLPSKLGHKLNRKHKEKMSKDGKKKKKKSKTKCVIM
B6: DNCR1: danoprevir/NS3a complex reader 1, intermediate-affinity variant, SEQ ID NO: 9 (protein)
chain: B1 chain with T122S, N132H, N173E, I174H, W177M, Q184Y, V187E

Columns and labels:
[1] = molecular target: T1, NS3a/asunaprevir complex (Hepatitis C virus genotype 1a, UniProt P27958, C1073S/C1078L/C1185S/I1043Q/I1044E/I1098T/L1039E/L1040E/L1047Q/L1179I/N1200S/P1112Q/Q1106K/T1100M/T1173A); experiment: Yeast surface display binding and titration; design: key to relative binding: +: Relative binding of different NS3a/inhibitor complexes is given for conditions where binding was too weak to achieve full titration curves on yeast, indicating binding in the low-to-mid micromolar-range, or weaker.; ++: Relative binding of different NS3a/inhibitor complexes is given for conditions where binding was too weak to achieve full titration curves on yeast, indicating binding in the low-to-mid micromolar-range, or weaker.; +++: Relative binding of different NS3a/inhibitor complexes is given for conditions where binding was too weak to achieve full titration curves on yeast, indicating binding in the low-to-mid micromolar-range, or weaker; settings: for relative binding / Kd: yeast-displayed design, NS3a/asunaprevir complex; for Kd: apparent, read-out: KD (nM) ± standard deviation
T1 construct: made in house; host or cells: E. coli BL21 (DE3), pDW363 with BirA
Source text: (§1) ; these sorts are denoted as “avid” below. […] See FIG. 30a for yeast gating strategies.
(§2) […]. Curves were fit using Graphpad Prism 5 to a one-site specific binding model with Hill coefficient.

[2] = molecular target: T2, NS3a/danoprevir complex (Hepatitis C virus genotype 1a, UniProt P27958, C1073S/C1078L/C1185S/I1043Q/I1044E/I1098T/L1039E/L1040E/L1047Q/L1179I/N1200S/P1112Q/Q1106K/T1100M/T1173A); experiment: Yeast surface display binding and titration; design: key to relative binding: +: Relative binding of different NS3a/inhibitor complexes is given for conditions where binding was too weak to achieve full titration curves on yeast, indicating binding in the low-to-mid micromolar-range, or weaker.; ++: Relative binding of different NS3a/inhibitor complexes is given for conditions where binding was too weak to achieve full titration curves on yeast, indicating binding in the low-to-mid micromolar-range, or weaker.; +++: Relative binding of different NS3a/inhibitor complexes is given for conditions where binding was too weak to achieve full titration curves on yeast, indicating binding in the low-to-mid micromolar-range, or weaker; settings: for binding to NS3a/danoprevir complex: yeast surface display; for relative binding / Kd: yeast-displayed design, NS3a/danoprevir complex; for Kd: apparent, read-out: KD (nM) ± standard deviation; for Fold drug specificity: grazoprevir/NS3a over danoprevir/NS3a
T2 construct: made in house; host or cells: E. coli BL21 (DE3), pDW363 with BirA
Source text: as §1, §2

[3] = molecular target: T3, NS3a/grazoprevir complex (Hepatitis C virus genotype 1a, UniProt P27958, C1073S/C1078L/C1185S/I1043Q/I1044E/I1098T/L1039E/L1040E/L1047Q/L1179I/N1200S/P1112Q/Q1106K/T1100M/T1173A); experiment: Yeast surface display binding and titration; design: key to relative binding: +: Relative binding of different NS3a/inhibitor complexes is given for conditions where binding was too weak to achieve full titration curves on yeast, indicating binding in the low-to-mid micromolar-range, or weaker.; ++: Relative binding of different NS3a/inhibitor complexes is given for conditions where binding was too weak to achieve full titration curves on yeast, indicating binding in the low-to-mid micromolar-range, or weaker.; +++: Relative binding of different NS3a/inhibitor complexes is given for conditions where binding was too weak to achieve full titration curves on yeast, indicating binding in the low-to-mid micromolar-range, or weaker; settings: for Fold drug specificity: danoprevir/NS3a over grazoprevir/NS3a; for relative binding / Kd: yeast-displayed design, NS3a/grazoprevir complex; for Kd: apparent, read-out: KD (nM) ± standard deviation
T3 construct: made in house; host or cells: E. coli BL21 (DE3), pDW363 with BirA
Source text: as §1, §2

[4] = molecular target: T4, apo NS3a (Hepatitis C virus genotype 1a, UniProt P27958, C1073S/C1078L/C1185S/I1043Q/I1044E/I1098T/L1039E/L1040E/L1047Q/L1179I/N1200S/P1112Q/Q1106K/T1100M/T1173A); experiment: Yeast surface display binding
T4 construct: made in house; host or cells: E. coli BL21 (DE3), pDW363 with BirA
Source text: as §1, §2

[5] = tested on: PI3K-Akt signaling in COS-7 cells; experiment: AKT Western blots; format: cell-based; settings: DNCR2 fused to inter-SH2 domain of p85, danoprevir
Method: COS-7 cells (ATCC), were plated in 24-well plates at 2×10^5 cells/mL (0.5 mL volume). […] One day after transfection, cells were washed once with DPBS, and media was replaced with serum-free DMEM. After serum-starving for 22 hours, cells were exposed to a 15-min drug treatment using 12, 3-fold dilutions of danoprevir from 5 μM to 0 μM, in triplicate. After drug treatment, cells were washed once in DPBS, then lysed in 50 μL modified RIPA buffer (50 mM Tris-HCl, pH 7.8, 1% v/v IGEPAL CA-630, 150 mM NaCl, 1 mM EDTA, 1× Pierce Protease Inhibitor Tablet) for 30 minutes on ice. Cell debris was cleared by centrifugation at […] for 10 min at 4° C. Lysate was mixed with protein loading dye and denatured at 95° C. for 7 minutes then run on an SDS-PAGE gel (Criterion, Bio-Rad) and transferred to nitrocellulose. Blocking and primary antibody incubations were done in a 1:1 mix of TBS plus 0.1% v/v Tween-20 (TBST) and blocking buffer (Odyssey). Primary antibodies used were pSER473 AKT (1:2000, Cell Signaling Technologies #4060), and pan-AKT (1:2000, Cell Signaling Technologies #2920). […]

[6] = 100 μM free drug unable to disrupt DNCR2/danoprevir/NS3a complex on yeast
[7] = tested on: NS3a in NIH3T3 cells; experiment: Confocal microscopy for colocalization analysis (fixed cells); format: cell-based; settings: 5 μM drug, 15 min
[8] = tested on: NS3a in NIH3T3 cells; experiment: as above; format: cell-based; settings: 10 μM drug, 1 h
Method: A Leica SP8× system was used for confocal microscopy. […] TagBFP emission was recorded on a PMT detector, and EGFP and mCherry™ were detected by separate HyD™ detectors.
Colocalization experiments were performed in NIH3T3 cells (Flp-In-3T3, Thermo Fisher Scientific). For fixed-cell experiments, cells were plated at 3×10^4 cells/mL on sterile glass coverslides placed in 12-well culture plates. […] One day after transfection, cells were treated with drug or DMSO and fixed. Drug additions were performed by exchanging the media for DMEM+10% v/v FBS plus drug. To fix, cells were washed once with DPBS (Thermo Fisher Scientific), then incubated with 4% v/v paraformaldehyde in DPBS for 15 minutes. After washing twice with DPBS, coverslides with cells were removed from the plate and mounted on glass slides using Fluoromount-G (SouthernBiotech).
Colocalization of NS3a and DNCR1 at the plasma membrane, nucleus, mitochondria and Golgi was performed with two sets of constructs, with either NS3a or DNCR1 as the immobilized component. mCherry™-NS3a was used with Tom20-DNCR1-EGFP, DNCR1-EGFP-Giantin, and 3×NLS-DNCR1-EGFP. […] Colocalization was analyzed after 1 h of 10 μM drug or equal volume DMSO treatment.
All images were analyzed using ImageJ. […] EGFP fluorescence was quantified in the ROI over the timecourse. […] The cytoplasmic fluorescence was normalized to the value in the first and last frame for each cell. […]

[9] = danoprevir/NS3a over asunaprevir/NS3a
[10] = grazoprevir/NS3a over asunaprevir/NS3a

Molecule	Fold drug specificity [1, 9]	relative binding [1]	binding to NS3a/danoprevir complex [2]	relative binding [2]	Fold drug specificity [3]	relative binding [3]	Kd [1] [nM]	Kd [2] [nM]	Kd [3]	binding to apo NS3a [4]	Fold drug specificity [1, 10]	Fold drug specificity [2]	specificity for binding grazoprevir/NS3a over NS3a with danoprevir or asunaprevir, or apo NS3a ([3]; yeast surface display)	other results
B1	modest	+	modest, drug-dependent binding	++	none	+++	–	–	–	–	–	–	–	–
B2	21,000 fold	–	–	–	56,000 fold	–	770 ± 50	0.036 ± 0.0002	2000 ± 100 nM	no detectable binding	–	–	–	specificity over NS3a bound to the drugs grazoprevir or asunaprevir [2]: > 20,000 fold; PI3K-Akt signaling activation [5]: capable of activating PI3K-Akt signaling; binding to danoprevir alone [6]: does not appear to bind substantially to danoprevir alone
B3	–	+	–	no binding	–	++	–	–	–	–	modest	high	high specificity	binding to NS3a/grazoprevir complex ([3]; yeast surface display): modest, grazoprevir-dependent binding
B4	–	–	little-to-no affinity	–	–	–	> 10000	> 10000	140 nM and < 200 nM	little-to-no affinity	>71 fold	>71 fold	high specificity	binding to asunaprevir-bound NS3a ([1]; yeast surface display): little-to-no affinity
B5	–	–	–	–	–	–	–	–	–	–	–	–	–	Colocalization of NS3a-mCherry with ANR-BFP-CAAX or NLS-DNCR2-EGFP [7]: pre-localized NS3a-mCherry™ to the plasma membrane
B6	33 fold	–	high nanomolar affinity	–	15 fold	–	6300 ± 2600	190 ± 10	2900 ± 100 nM	–	–	–	–	Colocalization of DNCR1-EGFP and NS3a-mCherry [8]: functional binding specificity for the danoprevir/NS3a complex
